Assay results: US20260191981A1 (ARROWHEAD PHARMACEUTICALS, published 2026)

B1: Fab0061 (Fab, V domains shown)
VH: EVQLVESGGGLVQPGGSLRLSCATSGYTFTSYWMHWVRQAPGKGLEWVAEINPTNGRVNYIEKFKSRITLSVDKSKSTVYLQMNSLRAEDTAVYYCARGTRAYHYWGQGTLVTVSS
VL: DIQLTQSPSSLSASVGDRVTITCRASDGLYSNLAWYQQKPGKAPKLLIYDATKLASGVPSRFSGSGSGTDYTLTISSLQPEDFATYYCQHFWGTPLTFGQGTKVEIKR
B2: Fab0066 (Fab, V domains shown)
VH: EVQLVESGGGLVQPGGSLRLSCATSGYTFTSYWVHWVRQAPGKGLEWVAEINPTNGRVNYIEKFKSRITLSVDKSKSTVYLQMNSLRAEDTAVYYCARGTRAYHYWGQGTLVTVSS
VL: DIQLTQSPSSLSASVGDRVTITCRASDGLYSNLAWYQQKPGKAPKLLIYDAFNLASGVPSRFSGSGSGTDYTLTISSLQPEDFATYYCQHFWGTPLTFGQGTKVEIKR
B3: Fab0064 (Fab, V domains shown)
VH: EVQLVESGGGLVQPGGSLRLSCATSGYTFTSYWMHWVRQAPGKGLEWVAEINPTNGRVNYIEKFKSRITLSVDKSKSTVYLQMNSLRAEDTAVYYCARGTRAYHYWGQGTLVTVSS
VL: DIQLTQSPSSLSASVGDRVTITCRASDGLYSNLAWYQQKPGKAPKLLIYDAKNLASGVPSRFSGSGSGTDYTLTISSLQPEDFATYYCQHFWGTPLTFGQGTKVEIKR
B4: Fab0060 (Fab, V domains shown)
VH: EVQLVESGGGLVQPGGSLRLSCATSGYTFTSYWVHWVRQAPGKGLEWVAEINPTNGRTNYIEKFKSRITLSVDKSKSTVYLQMNSLRAEDTAVYYCARGTRAYHYWGQGTLVTVSS
VL: DIQLTQSPSSLSASVGDRVTITCRASDGLYSNLAWYQQKPGKAPKLLIYDATKLASGVPSRFSGSGSGTDYTLTISSLQPEDFATYYCQHFWGTPLTFGQGTKVEIKR
B5: Fab0062 (Fab, V domains shown)
VH: EVQLVESGGGLVQPGGSLRLSCATSGYTFTSYWMHWVRQAPGKGLEWVAEINPTNGRVNYIEKFKSRITLSVDKSKSTVYLQMNSLRAEDTAVYYCARGTRAYHYWGQGTLVTVSS
VL: DIQLTQSPSSLSASVGDRVTITCRASDGLYSNLAWYQQKPGKAPKLLIYDAFNLASGVPSRFSGSGSGTDYTLTISSLQPEDFATYYCQHFWGTPLTFGQGTKVEIKR
B6: Fab0069 (Fab, V domains shown)
VH: EVQLVESGGGLVQPGGSLRLSCATSGYTFTSYWVHWVRQAPGKGLEWVAEINPTNGRSNYIEKFKSRITLSVDKSKSTVYLQMNSLRAEDTAVYYCARGTRAYHYWGQGTLVTVSS
VL: DIQLTQSPSSLSASVGDRVTITCRASDGLYSNLAWYQQKPGKAPKLLIYDATKLASGVPSRFSGSGSGTDYTLTISSLQPEDFATYYCQHFWGTPLTFGQGTKVEIKR
B7: Fab0063 (Fab, V domains shown)
VH: EVQLVESGGGLVQPGGSLRLSCATSGYTFTSYWMHWVRQAPGKGLEWVAEINPTNGRVNYIEKFKSRITLSVDKSKSTVYLQMNSLRAEDTAVYYCARGTRAYHYWGQGTLVTVSS
VL: DIQLTQSPSSLSASVGDRVTITCRASDGLYSNLAWYQQKPGKAPKLLIYDATRLASGVPSRFSGSGSGTDYTLTISSLQPEDFATYYCQHFWGTPLTFGQGTKVEIKR
B8: Fab0068 (Fab, V domains shown)
VH: EVQLVESGGGLVQPGGSLRLSCATSGYTFTSYWVHWVRQAPGKGLEWVAEINPTNGRVNYIEKFKSRITLSVDKSKSTVYLQMNSLRAEDTAVYYCARGTRAYHYWGQGTLVTVSS
VL: DIQLTQSPSSLSASVGDRVTITCRASDGLYSNLAWYQQKPGKAPKLLIYDATKLASGVPSRFSGSGSGTDYTLTISSLQPEDFATYYCQHFWGTPLTFGQGTKVEIKR
B9: Fab0067 (Fab, V domains shown)
VH: EVQLVESGGGLVQPGGSLRLSCATSGYTFTSYWVHWVRQAPGKGLEWVAEINPTNGRTNYIEKFKSRITLSVDKSKSTVYLQMNSLRAEDTAVYYCARGTRAYHYWGQGTLVTVSS
VL: DIQLTQSPSSLSASVGDRVTITCRASDNLYRNLAWYQQKPGKAPKLLIYDATKLASGVPSRFSGSGSGTDYTLTISSLQPEDFATYYCQHFWGTPLTFGQGTKVEIKR
B10: Fab0065 (Fab, V domains shown)
VH: EVQLVESGGGLVQPGGSLRLSCATSGYTFTSYWVHWVRQAPGKGLEWVAEINPTNGRSNYIEKFKSRITLSVDKSKSTVYLQMNSLRAEDTAVYYCARGTRAYHYWGQGTLVTVSS
VL: DIQLTQSPSSLSASVGDRVTITCRASDNLYRNLAWYQQKPGKAPKLLIYDATKLASGVPSRFSGSGSGTDYTLTISSLQPEDFATYYCQHFWGTPLTFGQGTKVEIKR

Columns and labels:
[1] = biological target: T1, his-tagged cTfR1 (Acro Biosystems p/n TFR-C524a) (cynomolgus monkey, UniProt H9EXL1 89-760 (rhesus entry)); test: SPR, Biacore X100, His-tagged TfR1 captured by anti-His
T1 construct: Bought reagent of the SPR assay
Experimental: Samples were analyzed via Surface Plasmon Resonance (SPR) to determine kinetics against cynomolgus monkey transferrin receptor 1 (cTfR1). Briefly, a Biacore X100 (Cytiva) was used for SPR measurements using a CM5 chip (carboxymethylated dextran surface, Cytiva p/n BR100399) with anti-histidine antibody irreversibly immobilized on the surface of both flow cells for the reversible capture of his-tagged cTfR1 (Acro Biosystems p/n TFR-C524a). The anti-histidine antibody was irreversibly immobilized via amine coupling using Cytiva provided Amine Coupling Kit (p/n BR100050) and His Capture Kit (p/n 28995056). […] Sample diluent was prepared in house and is composed of 10 mM HEPES buffer pH 7.4, 150 mM NaCl, 3 mM EDTA, and 0.05% Tween 20. Cytiva caps and vials compatible for Biacore X₁₀₀ were used for sample analysis. Each analysis cycle consists of a capture step followed by sample or blank injection, and finally a regeneration step that removes any sample and cTfR1 on the sensor surface. The capture step was performed at 5 μL/min with a contact time of 24 seconds over the active flow cell only, followed by a fluidics wash with 0.1% Tween 20. Generally, 2 μg/mL hTfR1 was a sufficient concentration to observe adequate hTfR1 captured consistently between cycles. Sample or buffer was injected at 30 μL/min with a contact time of 180 seconds and dissociation time of 180 seconds followed by a fluidics wash with 0.1% Tween 20. A 10 mM glycine solution at pH 1.5 (provided in His Capture Kit) was used for regeneration at 30 μL/min with a 60 second contact time. A cycle was performed for each sample concentration analyzed along with one cycle repeating one concentration for variability evaluation and 2-3 buffer cycles. Results were analyzed in Biacore Evaluation Software. Buffer cycles were averaged and subtracted from sample injections prior to kinetic fitting. A monovalent or kinetic fit was specified as relevant for the sample analyzed. Accuracy of the fit is evaluated and data points are excluded as applicable.

[2] = biological target: T2, cynomolgus monkey transferrin receptor 1 (cTfR1) (cynomolgus monkey, UniProt H9EXL1 89-760 (rhesus entry)); test: competition ELISA, Fab
T2 construct: The ELISA against cTfR1 is not described in the text

[3] = biological target: T3, human transferrin receptor 1 (hTfR1) (human, UniProt P02786 89-760, limits assumed); test: competition phage ELISA (phage-displayed Fab)
T3 construct: The selections used the biotinylated ECD domain of hTfR1

[4] = biological target: T3, human transferrin receptor 1 (hTfR1); test: competition ELISA, Fab
[5] = biological target: T4, his-tagged hTfR1 (Acro Biosystems p/n CD1-H5243) (human, UniProt P02786 89-760); test: SPR, Biacore X100, His-tagged TfR1 captured by anti-His
T4 construct: Bought reagent of the SPR assay
Experimental: Samples were analyzed via Surface Plasmon Resonance (SPR) to determine kinetics against human transferrin receptor 1 (hTfR1). Briefly, a Biacore X100 (Cytiva) was used for SPR measurements using a CM5 chip (carboxymethylated dextran surface, Cytiva p/n BR100399) with anti-histidine antibody irreversibly immobilized on the surface of both flow cells for the reversible capture of his-tagged hTfR1 (Acro Biosystems p/n CD1-H5243). The anti-histidine antibody was irreversibly immobilized via amine coupling using Cytiva provided Amine Coupling Kit (p/n BR100050) and His Capture Kit (p/n 28995056). […] Sample diluent was prepared in house and is composed of 10 mM HEPES buffer pH 7.4, 150 mM NaCl, 3 mM EDTA, and 0.05% Tween 20. Cytiva caps and vials compatible for Biacore X100 are used for sample analysis. Each analysis cycle consists of a capture step followed by sample or blank injection, and finally a regeneration step that removes any sample and hTfR1 on the sensor surface. The capture step was performed at 5 μL/min with a contact time of 24 seconds over the active flow cell only, followed by a fluidics wash with 0.1% Tween 20. Generally, 2 μg/mL hTfR1 is a sufficient concentration to observe adequate hTfR1 captured consistently between cycles. Sample or buffer was injected at 30 μL/min with a contact time of 180 seconds and a dissociation time of 180 seconds followed by a fluidics wash with 0.1% Tween 20. A 10 mM glycine solution at pH 1.5 (provided in His Capture Kit) was used for regeneration at 30 μL/min with a 60 second contact time. A cycle was performed for each sample concentration analyzed along with one cycle repeating one concentration for variability evaluation and 2-3 buffer cycles. Results were analyzed in Biacore Evaluation Software. Buffer cycles were averaged and subtracted from sample injections prior to kinetic fitting. A monovalent or kinetic fit was specified as relevant for the sample analyzed. Accuracy of the fit was evaluated and data points are excluded as applicable. […]

[6] = biological target: T2, cynomolgus monkey transferrin receptor …; test: competition phage ELISA (phage-displayed Fab)

T4 sequence (P02786 89-760 limits assumed): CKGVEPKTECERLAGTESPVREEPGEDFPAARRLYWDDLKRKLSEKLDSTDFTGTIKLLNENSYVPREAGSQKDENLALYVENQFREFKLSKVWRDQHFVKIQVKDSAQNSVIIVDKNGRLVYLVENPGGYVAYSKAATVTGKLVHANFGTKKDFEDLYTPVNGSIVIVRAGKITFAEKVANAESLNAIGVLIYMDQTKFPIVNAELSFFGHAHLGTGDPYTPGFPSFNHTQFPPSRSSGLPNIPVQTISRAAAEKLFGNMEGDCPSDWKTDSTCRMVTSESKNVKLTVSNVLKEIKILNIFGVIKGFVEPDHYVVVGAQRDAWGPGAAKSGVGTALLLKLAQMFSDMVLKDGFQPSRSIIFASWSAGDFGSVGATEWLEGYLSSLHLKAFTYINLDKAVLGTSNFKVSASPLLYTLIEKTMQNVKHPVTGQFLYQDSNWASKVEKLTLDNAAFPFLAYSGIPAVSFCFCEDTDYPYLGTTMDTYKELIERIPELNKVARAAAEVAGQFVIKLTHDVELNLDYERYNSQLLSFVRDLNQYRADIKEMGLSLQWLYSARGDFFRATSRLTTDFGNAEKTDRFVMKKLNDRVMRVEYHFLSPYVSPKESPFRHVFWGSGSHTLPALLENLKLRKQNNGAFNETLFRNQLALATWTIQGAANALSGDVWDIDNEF
T3 sequence (P02786 89-760 limits assumed): as above
T1 sequence (chain, as listed by the source): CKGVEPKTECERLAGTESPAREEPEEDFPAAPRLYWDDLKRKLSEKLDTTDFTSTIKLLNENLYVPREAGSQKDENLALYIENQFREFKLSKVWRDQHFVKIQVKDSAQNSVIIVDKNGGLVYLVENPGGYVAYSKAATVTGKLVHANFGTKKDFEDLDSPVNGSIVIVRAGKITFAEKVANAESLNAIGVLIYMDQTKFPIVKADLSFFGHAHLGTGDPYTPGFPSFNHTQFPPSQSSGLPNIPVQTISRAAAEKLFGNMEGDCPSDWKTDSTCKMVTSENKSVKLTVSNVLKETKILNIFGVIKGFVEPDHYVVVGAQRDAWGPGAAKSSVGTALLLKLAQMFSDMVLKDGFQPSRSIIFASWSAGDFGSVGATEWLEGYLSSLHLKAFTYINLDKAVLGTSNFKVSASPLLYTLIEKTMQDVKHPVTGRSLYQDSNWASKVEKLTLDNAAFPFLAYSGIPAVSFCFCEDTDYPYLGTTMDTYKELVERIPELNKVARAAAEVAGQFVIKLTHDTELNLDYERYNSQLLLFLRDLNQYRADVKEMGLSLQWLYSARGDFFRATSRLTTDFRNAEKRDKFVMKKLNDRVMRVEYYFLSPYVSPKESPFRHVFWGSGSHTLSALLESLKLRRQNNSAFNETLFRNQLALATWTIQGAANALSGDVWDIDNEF
T2 sequence (chain, as listed by the source): as above

| Binder | Kd [1] [nM] | koff [1] [s⁻¹] | kon [1] [M⁻¹ s⁻¹] | Kd [2] [nM] | Kd [3] [nM] | Kd [4] [nM] | Kd [5] [nM] | koff [5] [s⁻¹] | kon [5] [M⁻¹ s⁻¹] | Kd [6] [nM] |
| --- | --- | --- | --- | --- | --- | --- | --- | --- | --- | --- |
| B1 | 1.75 | 0.0037 | 2.11e+06 | 5.15 | 0.49 | 0.95 | 0.708 | 0.00101 | 1.42e+06 | 1.75 |
| B2 | 4.35 | 0.00509 | 1.17e+06 | 9.4 | 0.87 | 0.91 | 1.41 | 0.00139 | 985000 | 1.34 |
| B3 | 2.45 | 0.00367 | 1.5e+06 | 5.04 | 0.34 | 0.67 | 0.754 | 0.00111 | 1.47e+06 | 2.02 |
| B4 | 2.71 | 0.00357 | 1.32e+06 | 4.58 | 0.49 | 0.81 | 0.907 | 0.00111 | 1.22e+06 | 1.56 |
| B5 | 3.22 | 0.00515 | 1.6e+06 | 9.14 | 0.65 | 1.1 | 0.993 | 0.00117 | 1.18e+06 | 3.48 |
| B6 | 2.72 | 0.00375 | 1.38e+06 | 4.68 | 0.35 | 0.75 | 0.783 | 0.00108 | 1.38e+06 | 1.29 |
| B7 | 2.72 | 0.00446 | 1.64e+06 | 5.57 | 0.48 | 0.67 | 0.598 | 0.00105 | 1.75e+06 | 2.63 |
| B8 | 2.34 | 0.00366 | 1.57e+06 | 7.37 | 0.43 | 0.84 | 0.97 | 0.00113 | 1.17e+06 | 1.75 |
| B9 | 1.75 | 0.00328 | 1.87e+06 | 3.02 | 0.35 | 0.52 | 0.543 | 0.000804 | 1.48e+06 | 0.95 |
| B10 | 1.45 | 0.00259 | 1.79e+06 | 2.87 | 0.26 | 0.33 | 0.413 | 0.00071 | 1.72e+06 | 0.57 |
